Assay [1] concerns the target T1, human α4β7 integrin (human, UniProt P13612 34-1032; P26010 20-798).
T1 construct: also called hα4β7; a4b7
Nature of the assay: blockade of MAdCAM-1 mediated HuT78 cell adhesion.

The target in assay [2] is T2, cynomolgus α4β7 integrin (cynomolgus monkey).
T2 construct: whole, on cells; On CHOK1-cα4β7 cells or cynomolgus blood lymphocytes; also called cα4β7; cyno α4β7
Nature of the assay: blockade of CHOK1/cα4β7 adhesion to MAdCAM-1.

Assay [3] addresses T1, human α4β7 integrin. As to the kind of experiment: FACS on α4β7-expressing HuT78 cells.
Assay [4] addresses T1, human α4β7 integrin. As to the kind of experiment: FACS titration on BaF3-hα4β7.
The target of assay [5] is T1, human α4β7 integrin. As to the kind of experiment: FACS, primary human CD4+ memory T cells.
Assay [6] deals with T1, human α4β7 integrin. As to the kind of experiment: blockade of HuT78 cell adhesion to MAdCAM-1.
The target of assay [7] is T1, human α4β7 integrin. Nature of the assay: blockade of HuT78 cell adhesion to MAdCAM-1. This is another data set of the same source.
The target of assay [8] is T2, cynomolgus α4β7 integrin. As to the kind of experiment: blockade of CHOK1-cα4β7 cell adhesion to MAdCAM-1.
Assay [9] deals with T2, cynomolgus α4β7 integrin. As to the kind of experiment: blockade of CHOK1-cα4β7 cell adhesion to MAdCAM-1. This is another data set of the same source.
In assay [10] the target is T1, human α4β7 integrin. As to the kind of experiment: FACS binding, human CD4+CD45RO+ T cells, summary table. For orientation: In flow cytometry, cells or beads pass a laser one at a time.
Assay [11] concerns the target T1, human α4β7 integrin. As to the kind of experiment: MadCAM-1/HuT78 potency (adhesion blockade), summary table.
Assay [12] concerns the target T2, cynomolgus α4β7 integrin. As to the kind of experiment: MadCAM-1/cα4β7 potency (adhesion blockade), summary table.
Assay [13] addresses T1, human α4β7 integrin. Nature of the assay: inhibition of MAdCAM-1 binding to human CD4+CD45RO+ T cells.
Assay [14] addresses T2, cynomolgus α4β7 integrin. Nature of the assay: ratio of cyno to human adhesion-blockade potency, summary table.
Assay [15] addresses T1, human α4β7 integrin. As to the kind of experiment: row IC50 (pM) HuT78 of the binning table (assay not explained, presumably adhesion to MAdCAM-1).
Assay [16] has as its target T1, human α4β7 integrin. Nature of the assay: blockade of HuT78 cell adhesion to plate-bound MAdCAM-1, representative experiment; the two IC50 lines under the plot bear no name: the lower one is given to Ab-m1, whose curve lies left of Ab-Vedo's (midpoint near log -2.1 ug/ml).
The target of assay [17] is T2, cynomolgus α4β7 integrin. Nature of the assay: blockade of CHOK1-cα4β7 cell adhesion to MAdCAM-1, representative experiment; the two IC50 lines under the plot bear no name: the lower one is given to Ab-m1, whose curve lies clearly left of Ab-Vedo's (midpoint near log -1.6 ug/ml).
Assay [18] has as its target T1, human α4β7 integrin. As to the kind of experiment: FACS, primary human CD4+ memory T cells (CD4+CD45RO+), one whole blood.

B1: Ab-h1.5 (antibody, human IgG1, V domains shown)
VH: EVQLVQSGAEVKKPGSSVKVSCTTSGFNIKNTYMHWVKQRPGQGLEWIGRIDPANGHTEYAPKFQGKATITADESTNTAYLELSSLRSEDTAVYYCYYVDSWGQGTTVTVSS
VL: DIQMTQSPSSLSASVGDRVTITCHASQGISDNIGWLQQKPGKSFKGLIYHGTNLEDGVPSRFSGSGSGADYTLTISSLQPEDFATYYCVQYAQFPWTFGGGTKVEIKR
B1 yielded a 50% inhibitory concentration (IC50) in assay [1] of 0.0091 nM.

B2: Ab-h1.9 (antibody, human IgG1, V domains shown)
VH: EVQLVQSGAEVKKPGSSVKVSCKASGFNIKNTYMHWVRQAPGQGLEWIGRIDPANGHTEYAPKFQGRVTITADESTNTAYMELSSLRSEDTAVYYCYYVDSWGQGTTVTVSS
VL: DIQMTQSPSSLSASVGDRVTITCHASQGISDNIGWLQQKPGKSFKLLIYHGTNLEDGVPSRFSGSGSGTDYTLTISSLQPEDFATYYCVQYAQFPWTFGGGTKVEIK
notes: Humanized, human IgG1 and kappa constant regions; also called Ab-H1.9 (parental)
Regarding B2, the half-maximal inhibitory concentration (IC50) in assay [2] was found to be 0.0365 nM; in assay [1] it was 0.0114 nM.

B3: Ab-h1.9a (antibody, V domains shown)
VH: EVQLVQSGAEVKKPGSSVKVSCKASGFNIKNTYMHWVRQAPGQGLEWIGRIDPANKHTEYAPKFLGRVTITADESTNTAYMELSSLRSEDTAVYYCYYVASWGQGTTVTVSS
VL: DIQMTQSPSSLSASVGDRVTITCHASQEISDNIGWLQQKPGKSFKLLIYHGTNLEDGVPSRFSGSGSGTDYTLTISSLQPEDFATYYCVQYAQFPWTFGGGTKVEIK
notes: Liability-engineered clone converted to IgG format [hu IgG1/k]; constant regions of the tested mAb not specified
Take B3: in [3], the binding result is given as “binds”.

B4: Ab-h1.9e (antibody, V domains shown)
VH: EVQLVQSGAEVKKPGSSVKVSCKASGFNIKNTYMHWVRQAPGQGLEWIGRIDPAGGHTEYAPKFIGRVTITADESTNTAYMELSSLRSEDTAVYYCYYVASWGQGTTVTVSS
VL: DIQMTQSPSSLSASVGDRVTITCHASQEISDNIGWLQQKPGKSFKLLIYHGTNLEDGVPSRFSGSGSGTDYTLTISSLQPEDFATYYCVQYAQFPWTFGGGTKVEIK
notes: as for B3
Consider B4, for which the binding result in assay [3] was “binds”.

B5: Ab-h1.9b (antibody, V domains shown)
VH: EVQLVQSGAEVKKPGSSVKVSCKASGFNIKNTYMHWVRQAPGQGLEWIGRIDPARGHTEYAPKFSGRVTITADESTNTAYMELSSLRSEDTAVYYCYYVDQWGQGTTVTVSS
VL: DIQMTQSPSSLSASVGDRVTITCHASQDISDNIGWLQQKPGKSFKLLIYHGTNLEDGVPSRFSGSGSGTDYTLTISSLQPEDFATYYCVQYAQFPWTFGGGTKVEIK
notes: as for B3
With B5, the binding result in assay [3] is reported as “binds”.

B6: Ab-h1.8 (antibody, human IgG1, V domains shown)
VH: EVQLVQSGAEVKKPGSSVKVSCKASGFNIKNTYMHWVRQAPGQGLEWIGRIDPANGHTEYAPKFQGRVTITADESTNTAYMELSSLRSEDTAVYYCYYVDSWGQGTTVTVSS
VL: DIQMTQSPSSLSASVGDRVTITCHASQGISDNIGWLQQKPGKSFKGLIYHGTNLEDGVPSRFSGSGSGADYTLTISSLQPEDFATYYCVQYAQFPWTFGGGTKVEIKR
As for B6, the IC50 in assay [1] was found to be 0.0138 nM.

B7: Ab-h1.6 (antibody, human IgG1, V domains shown)
VH: EVQLVQSGAEVKKPGSSVKVSCTTSGFNIKNTYMHWVKQRPGQGLEWIGRIDPANGHTEYAPKFQGKATITADESTNTAYLELSSLRSEDTAVYYCYYVDSWGQGTTVTVSS
VL: DIQMTQSPSSLSASVGDRVTITCHASQGISDNIGWLQQKPGKSFKLLIYHGTNLEDGVPSRFSGSGSGTDYTLTISSLQPEDFATYYCVQYAQFPWTFGGGTKVEIK
B7: in [1], the midpoint of inhibition, the IC50, lay at 0.0081 nM.

B8: Ab-m1 (antibody, V domains shown)
VH: EVQLQQSVAELVRPGASVKLSCTTSGFNIKNTYMHWVKQRPKQGLEWIGRIDPANGHTEYAPKFQGKATITADTSSNTAYLHLSSLTSDDTAIYYCYYVDSWGQGTTLTVSS
VL: DILMTQSPSSMSVSLGDTVSITCHASQGISDNIGWLQQRPGKSFKGLIYHGTNLEDGVPSRFSGSGSGADYSLTISSLESEDFADYYCVQYAQFPWTFGGGTTLEIK
notes: Hybridoma antibody, mouse IgG1/kappa; also called murine antibody Ab-m1; Mouse anti-human α4β7 [mu IgG1/k
Turning to B8, the concentration giving a half-maximal response (EC50) in assay [4] is 0.474 nM; in assay [5], 0.0098 nM; in assay [10] it was 0.0098 nM. For the same molecule, the IC50 is 0.0555 nM in [6]; 0.0228 nM in [7]; 0.201 nM in [8]; 0.0658 nM in [9]; 0.0555 nM in assay [11]; 0.201 nM in [12]. Moreover, the IC50 came to 0.0637 nM in assay [13], 0.0447 nM in assay [15], 0.0511 nM in [16] and 0.165 nM in assay [17]. The Cyno x-reactivity in assay [14] stood at 4 fold.

B9: Ab-c1 (antibody, human IgG1, V domains shown)
VH: EVQLQQSVAELVRPGASVKLSCTTSGFNIKNTYMHWVKQRPKQGLEWIGRIDPANGHTEYAPKFQGKATITADTSSNTAYLHLSSLTSDDTAIYYCYYVDSWGQGTTLTVSS
VL: DILMTQSPSSMSVSLGDTVSITCHASQGISDNIGWLQQRPGKSFKGLIYHGTNLEDGVPSRFSGSGSGADYSLTISSLESEDFADYYCVQYAQFPWTFGGGTTLEIK
notes: Ab-m1's variable regions with human IgG1/k constant regions; also called murine-human chimera Ab-c1; Chimeric anti-human α4β7 [hu IgG1/k
Consider B9, for which the half-maximal inhibitory concentration (IC50) in assay [7] came out at 0.0137 nM; in [9], 0.0864 nM. In addition, the EC50 in [18] came to 0.0039 nM.

As a reminder, the IC50 is the point on the concentration scale where inhibition reaches its midpoint. Low values mean greater potency, high ones weaker potency. A word on the EC50: it is the concentration at which the effect is half-maximal.

Values taken from patent US20260062488A1 (AbbVie / Abbott, published 2026).
